Residue numbers refer to the chain shown, from its start. In names and notes the source's numbering stands.
T1: HBsu (HU of B. subtilis) (Bacillus subtilis, UniProt P08821 1-92)
T1 sequence: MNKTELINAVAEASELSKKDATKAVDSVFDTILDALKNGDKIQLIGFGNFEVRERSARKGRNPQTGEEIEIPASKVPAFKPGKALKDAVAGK

T2: HBsu^I71A (Bacillus subtilis, UniProt P08821 1-92, I71A)
T2 sequence: T1 sequence with I71A

T3: HBsu^R53N/R55N/R58N (Bacillus subtilis, UniProt P08821 1-92, R53N | R55N | R58N)
T3 sequence: T1 sequence with R53N, R55N, R58N

B1: dsDNA (DNA1/DNA2) (dsDNA)
DNA 1: TGCTTATCAATTTGTTGCACC
DNA 2: GGTGCAACAAATTGATAAGCA
B2: HBsu (histone-like protein HU of B. subtilis), recombinant (natural protein)
chain: T1 sequence
B3: Gp46 from bacteriophage SPO1 (natural protein)
chain: MMTEDQKFKYLTKIEELEAGCFSDWTKEDITGDLKYLKKGIIEESIELIRAVNGLTYSEELHDFTQEIIEELDISPL
B4: HU of Plasmodium falciparum (natural protein)
chain: RRAFINVHKNNIINNKLSVNNPYNKNALYQSSSKIPMSQAITKKQIIEEVSMETKENKKTVEKIMNGIFDNIYKHLENNEKIYIHKFGMFYNIFRKKRCIKNLRTKEDIEIESSHMPHFKFSKVFKELIKQNVKVKKGKGVSTNDHDLDEDDMNMDNINESFKENVNEKLIY
B5: Gp46^D63N (natural protein)
chain: B3 chain with D63N

Legend:
[1] = molecular target: T1, HBsu (HU of B. subtilis); test: ITC
[2] = molecular target: the molecule itself; test: SEC-MALS
[3] = molecular target: HU of Acinetobacter baumannii (Acinetobacter baumannii); test: ITC
[4] = molecular target: B2; test: ITC
[5] = molecular target: T2, HBsu^I71A; test: ITC
[6] = molecular target: T3, HBsu^R53N/R55N/R58N; test: ITC
[7] = molecular target: B2; test: SPR
[8] = molecular target: B3; test: ITC
[9] = molecular target: B2; test: ITC; remark: listed apart in the source

## B1
[1]
  Kd: 359 ± 38 nM

## B2
[2]
  binding result: binds

## B3
[3]
  Kd: 300 nM
[4]
  Kd: 277 ± 50 nM
[5]
  Kd: 6410 ± 3540 nM
[6]
  binding result: binds
[7]
  Kd: 5870 ± 110 nM

## B4
[8]
  Kd: ~300 nM

## B5
[9]
  binding result: binds

Reference: publication PMC8892312 (Proceedings of the National Academy of Sciences of the …, 2022)
